From publication PMC5149108

Legend:
Test in all cases: fluorescence anisotropy
[1] = molecular target: A1-FL (hnRNPA1) (UniProt P09651 1-251+304-372, internal_change)
[2] = molecular target: A1-RRM (UniProt P09651 14-184)
[3] = molecular target: A1-LCD (UniProt P09651 186-251+304-372, internal_change)

Measured: binding result

B1: fl-RNA44 (ssRNA)
RNA: GGGCCCCCGGGUACCGAGCUGCUAAUCAAAACAAAACAAAAGCU
binds: all assays above
